# Source: patent publication US20180002421A1 (INSERM INSTITUT NATIONAL DE LA SANTA ET DE LA RECHERCHE …, published 2018)
# Molecular target: T1, orexin receptor type 1 (OX1R), recombinant, stably expressed on HEK cells (human, UniProt O43613 1-425)
# T1 construct: whole, on cells; also called HEK-OX1R; hypocretin receptor type 1
# T1 sequence (looked up): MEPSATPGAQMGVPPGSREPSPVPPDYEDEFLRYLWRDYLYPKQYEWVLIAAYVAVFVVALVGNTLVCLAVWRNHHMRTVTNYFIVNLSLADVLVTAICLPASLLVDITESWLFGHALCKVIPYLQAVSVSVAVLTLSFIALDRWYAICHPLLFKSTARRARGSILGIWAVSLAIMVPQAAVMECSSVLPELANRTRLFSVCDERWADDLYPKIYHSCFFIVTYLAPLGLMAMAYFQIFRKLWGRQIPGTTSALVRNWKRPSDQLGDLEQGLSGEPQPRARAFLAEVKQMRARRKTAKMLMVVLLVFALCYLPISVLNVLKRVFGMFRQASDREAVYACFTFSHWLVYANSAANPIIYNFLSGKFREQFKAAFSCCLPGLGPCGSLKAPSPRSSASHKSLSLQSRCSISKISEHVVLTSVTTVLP
# Experiment: competitive inhibition of 125I-OxA binding to HEK-OX1R cells
binder,measurement,value
"C2 antibody (antibody, V domains shown, Human antibody from phage display; also called anti-OX1R antibody C2) VH: EVQLVESGGSLVKPGGSLRLSCAASGFTFSNSYMNWVRQAPGKGLEWISSIYGSSRYIDYADFVKGRFTISRDNATNSLYLQMNSLRAEDTAVYYCVRSSSYYGSGMDVWGRGTLVTVSS VL: QSVLTQPASVSGSPGQSITISCAGTSSDVGGYGSVSWYQQHPGKAPKLMIYYDSYRPSGVSNRFSGSKSGNTASLTISGLQAEDEADYYCSSNTNSSTRVFGGGTKLAVLG",IC50,~5 µM
